The term Kd denotes the equilibrium constant for the complex coming apart. The low end stands for a tighter complex, the high end for a looser complex. By stoichiometry N is commonly meant a count of units in the complex or per binding partner.

These results are taken from article PMC9122589.

In data set [1] the target is BrxR (untagged WT) (Acinetobacter sp. NEB394) (UniProt A0A7H8SL41). As to the kind of experiment: EMSA. The conditions noted are these: EMSA: 20 mM Tris pH 7.9, 40 mM NaCl, 2.5% sucrose, 22 C, 30 min; 20 nM DNA (10 nM in Fig S6), 25-800 nM BrxR; 7% native gel in TBE. (A gel shift assay detects complexes by their altered migration in electrophoresis.)
The target in data set [2] is selenomethionyl (SeMet)-containing BrxR from Acinetobacter sp. NEB394 (Acinetobacter sp. NEB394). As to the kind of experiment: crystal structure; apo BrxR, SeMet-derivatized protein, SAD phasing, 2.3 Å; crystals from 10% PEG3000, 0.1 M HEPES pH 7.3, 2% benzamidine-HCl.
Data set [3] concerns the target BrxR (R47A) from Acinetobacter sp. NEB394 (Acinetobacter sp. NEB394). As to the kind of experiment: SEC; elution profile of purified protein on size exclusion chromatography; conditions of this run not stated. A general note: SEC sorts molecules by how far they enter the pores of the column.
Data set [4] concerns the target BrxR ('BREX Regulator') from Acinetobacter sp. NEB394, untagged (Acinetobacter sp. NEB394). The data set is described as follows: crystal structure; BrxR (125 uM) co-crystallized with 25 bp dsDNA target (150 uM), 2.3 Å, molecular replacement; 0.04 M citric acid, 20% PEG 3350, 60 mM Bis-Tris propane pH 6.4.
Data set [5] shares this target. The data set is described as follows: SEC; elution profile of purified protein on size exclusion chromatography; conditions of this run not stated.

In data set [1], “GCGGAGTCCATCCAAACATCGGGAGATTTTGATCAGATATGTTTAACCTGCCCTCACAATACCGTAAAAATAATTTACTGTATATTCATTGTAGGGTAGTCTTGATCACATTGTTTATTGACCGATTGTTCTATGACAGCAGACAAGCATGAAGTGCTTCTCAGAATGAGGGCGATTGAGTTACTGGCCTACTGGGAAGGGCGTTTG (double strand) [BREX upstream region -109/+98 (~200 bp)]” had a Kd of 100 nM.

Consider “selenomethionyl (SeMet)-containing BrxR from Acinetobacter sp. NEB394 (natural protein)”, for which the stoichiometry N in data set [2] stood at 2.

Substance “BrxR (R47A) from Acinetobacter sp. NEB394 (natural protein)” displayed a stoichiometry N in data set [3] of 2.

As to “BrxR ('BREX Regulator') from Acinetobacter sp. NEB394, untagged (natural protein)”, the stoichiometry N in data set [4] and in data set [5] was 2 each time.
